Experimental data: patent US20230257435A1, “Wound Healing Composition and Uses Thereof” (AGENCY FOR SCIENCE, TECHNOLOGY AND RESEARCH, priority 2020, published 2023)
Entries after “also recorded” stand apart in the source; their conditions may differ.

Key:
HaCaT cells = test: Collective migration on soft/stiff substrates (stencil barrier); format: cell-based, human
Experimental: Tissue culture plates were coated with Col-T-gel (Fischer Scientific) of stiffness ranging from 0.8 KPa (soft) to 30 KPa (stiff) as per manufacturer recommendations and allowed to solidify for 40 min at 37° C. inside tissue culture incubators. Some experiments were performed with cells seeded on the poly-hydrogel plates of defined stiffness: 0.2 kPa and 16 kPa soft and hard polyhydrogels, respectively (CytoSoft, Advanced Biomatrix, Inc.,). The determination of stiffness of silicone substrates were done by the manufacturer as per previously published protocols. For certain experiments, indicated amounts of sAgrin was incorporated into the 0.8 KPa collagen gels before gelation process. Upon gelation, trypsinized cells or excised mouse skin explants were plated onto the gels of different stiffness either alone or containing sAgrin. The cells/tissues were incubated under standard culture condition with 500 μl recommended culture medium for the indicated days. The crossbow shaped micropatterns with fibronectin coated islands were generated by microlithography on a 19.5×19.5 mm coverslide from Cytoo, Inc., France. The micropatterns had surface areas of 800μ^2 or 1600μ^2, respectively. Fifty thousand cells after initial siRNA treatment was placed on the micropatterns for 4-6 h before processing them for immunofluorescence. For some experiments, 10 μg/ml sAgrin was added on the slides 18 h prior to the addition of cells.
A confluent monolayer of control and Agrin depleted cells in a 6-well plate was subjected to a unidirectional scratch using a 20 μl pipette tip. This was followed by washing with 1×PBS at room temperature and incubation in complete culture media at 37° C. and 5% CO2 with or without sAgrin used as indicated. Phase contrast images of the wound area were taken periodically at the indicated time-points. For some wound-healing migration assays, keratinocytes were cultured on either soft or stiff substrates within a stencil barrier (Nalge Nunc., Inc) for 18 h. Upon removal of the barrier, the cells were allowed to migrate and imaged using an Axiovert 200 inverted microscope at indicated time-points.

[1] = test system: primary mouse keratinocytes over dermal fibroblasts; test: 3D-stiffness dependent keratinocyte fibroblast co-culture migration assay; format: cell-based; conditions: 10 μg/ml sAgrin
From the text: A 3D in-vitro wound healing model was created using collagen constructs of defined stiffness modifying a previously published protocol. Collagen constructs were made with Col-T-gel (0.8 KPa-soft) or (30 KPa-stiff) as per manufacturer's recommended protocol containing 300,000 primary mouse dermal fibroblasts (DFs). For some experiments, siControl and siAgrin treated DFs were incorporated within soft or stiff collagen constructs. The constructs bearing fibroblasts were allowed to solidify for 45 min inside incubator. A second layer of collagen matching the stiffness of the underneath layer was added containing 350,000 of primary mouse keratinocytes (KRTs) and the construct was allowed to solidify for 3-4 h. After removing excess media, the constructs were washed gently with 1×PBS twice. An upside down 2μ pipette tip was inserted and gently rotated at the center of the constructs to create a circular wound. The collagen and cells was quickly removed from the wound area and replaced with 40 μl of soft or stiff Col-T-gel matching the consistency and set-up of the constructs. The resultant wounded constructs were placed inside the incubator and imaged after 30 min for day 0 time-points. The migratory keratinocytes were imaged till day 5 post-wounding.

mouse skin punch wounds = test: Punch-biopsy wound healing model, splinted; format: in vivo
Experimental: Six to eight to week old female experimental ICR (nomenclature: IcrTac:ICR) mice purchased from InVivos were used for punch-biopsy wound healing in vivo assays. In the ex-vivo mouse skin explant assay, random ratios of male and female new born ICR mouse pups were used. Wherever possible, the experiments were performed taking into consideration an ethical and reductionist approach of animal usage. Animal studies were not performed in a blinded fashion. The animals were randomly assigned to different experimental groups. The number of animals used for each experiment is indicated in the legend as n=x mice per group. All animal experiments performed were done in accordance with experimental protocols reviewed by the Biological Resource Center (BRC), Agency for Science Technology and Research (A*STAR) under strict compliance to the Institutional Animal Care and Use Committee (IACUC) guidelines for ethical use of animal models in biological research.
The mice were housed under standard conditions of 21° C. and a 12 h light-dark cycle with free access to food. Subsequently, the mice were intraperitoneally (i.p.) anesthezised using Ketamine 100 mg/kg and Xylazin 10 mg/kg diluted in […] of saline solution. The fur was shaved from the base of the neck towards the back on the entire shoulder region. The skin was wiped with an alcohol swab and 10% povidone-iodine (Betadine) antiseptic solution. Circular symmetrical 4 mm wounds were inflicted on either side of the midline in the shoulder region using a sterile 4 mm punch biopsy needle (Integra Miltex, Integra York, P.A., Inc.). The wound skin was carefully removed using a scalpel and a pair of scissors to generate a full-thickness wound that were left open for topical administrations during the analysed time periods. For splinted wound healing models, a 10 mm transparent donut shaped nylon sheet (Grace Bio-Laboratories, Bend, Oreg.) was placed around the 4 mm wound. The splint was placed with the wound at the center, glued to the skin by adhesive (Krazy Glue®; Elmer's Inc.), and covered by Tegaderm dressing. The wounds were treated with different formulations based on either petroleum jelly (Vaseline), a thermoresponsive hydrogel (Pluronic F127-Sigma) or a commercially available skin ointment (Aquaphore-Beiersdorf, Inc.). For Vaseline based ointment cream preparation, 10 mg per cm^2 vaseline ointment was mixed with filtered PBS solutions containing the indicated amounts of Agrin (100 μg, 200 μg or 500 μg) and 100 μg BSA (w/w) were used and applied topically every two days. For siRNA mediated knockdown experiments, 75 nM of indicated siRNAs were incubated with lipofectamine in PBS. Subsequently, a 1:1 mixture of PBS (containing the siRNAs): Aquaphore was applied topically on the wound region every two days. A topical formulation comprising of 20% (w/w) Pluronic F127 (Sigma) was used to dissolve in sterile and 0.22μ filtered solution containing a final concentration of 200 μg/ml sAgrin or BSA. This mixture was dissolved overnight at 4° C. to ensure that liquid phase is achieved. The mixture forms a homogenous gel at temperatures above ˜20° C. and was dispersed topically to cover the wound. Wound closure was assessed using a Vernier caliper every alternate day. For both models, the animals were caged individually throughout the observed time-points of healing at the institutional animal facility. All wound healing animal experiments performed were done in accordance with experimental protocols reviewed by the Biological Resource Center (BRC), Agency for Science Technology and Research (A*STAR) under strict compliance to the Institutional Animal Care and Use Committee (IACUC) guidelines for ethical use of animal models in biological research.
Human skin equivalents and mice skin tissues were harvested, embedded, and subjected to routine histology using Hematoxylin and Eosin. For immunostaining, the tissues were fixed for 24 h in 10% neutral buffered formalin solution. […]

B1: sAgrin: C-terminus recombinant Agrin fragment containing 8 amino acid 'Z8' insert and LG3 domain (SEQ ID NO: 7), His-tagged, expressed in E. coli (protein)
chain: DTLAFDGRTFVEYLNAVTESELANEIPVEKALQSNHFELSLRTEATQGLVLWSGKATERADYVALAIVDGHLQLSYNLGSQPVVLRSTVPVNTNRWLRVVAHREQREGSLQVGNEAPVTGSSPLGATQLDTDGALWLGGLPELPVGPALPKAYGTGFVGCLRDVVVGRHPLHLLEDAVTKPELRPCPTP
modifications: His tag
collective migration rates on compliant substrates (HaCaT cells; 0.8 kPa, sAgrin 10 μg/ml, 24 h): significantly promoted migration rates that was comparable to those in stiff ECM alone
K17 expressing leader cells on soft substrates (HaCaT cells; soft substrate, sAgrin 10 μg/ml, 4 h): stimulated collective migration by activating K17 expressing leader cells
fraction of K17 expressing leader cells in Agrin depleted cells (HaCaT cells; stiff ECM with sAgrin, 4 h): significantly restored
migratory potential of Agrin depleted keratinocytes on stiff substrates (HaCaT cells; stiff matrix with 10 μg/ml sAgrin): significantly rescued
K17 expressing migrating cells after MMP12 knockdown (HaCaT cells; stiff substrates (30 kPa), 20 μg/ml sAgrin): not restored by the nourishment of sAgrin
keratinocyte migration in soft matrix ([1]; 0.8 KPa, day 5): strongly enhanced keratinocyte migration; also recorded: stimulated mouse keratinocyte migration over dermal fibroblasts
keratinocyte migration in stiff matrix, Agrin depleted KRTs and DFs ([1]; 30 KPa): strongly restored keratinocyte migration
keratinocyte migration, MMP12 depleted KRTs and DFs ([1]; soft matrix 0.8 KPa): not even rescued by sAgrin supplemented compliant matrices
wound healing, Pluronic F127 (mouse skin punch wounds; 200 ug sAgrin vs collagen or BSA, 12 days): significantly accelerated wound healing when compared to similar concentrations of collagen or BSA
pMLC expression in wound edges and beds under MMP12 depletion (mouse skin punch wounds; MMP12 siRNA, 200 μg sAgrin): significantly attenuated in MMP12 depleted skin sections
sAgrin accelerated healing rates and re-epithelialization under MMP12 depletion (mouse skin punch wounds; MMP12 siRNA, 200 μg sAgrin, within 10 days): dramatically reduced upon MMP12 depletion
CD-31 expressing blood vessels under MMP12 suppression (mouse skin punch wounds; day 10): failed to induce robust CD-31 expressing blood vessels
sAgrin induced mature and mixed collagen fiber deposition under MMP12 depletion (mouse skin punch wounds; day 10): significantly diminished upon MMP12 depletion
deposition of collagen fibers in wound beds (mouse skin punch wounds; day 10, vs BSA and Collagen): higher deposition of mature and mixed collagen fibers
histology of wound area (mouse skin punch wounds; day 10 post-wounding, vs BSA or Collagen): predominantly represented healed skin with the emergence of regenerated hair follicles
number of blood vessels and their diameters (mouse skin punch wounds; day 12 post-injury, vs BSA or Collagen): increased number of blood vessels and their diameters
